Experimental findings from patent US9187525B2, “Methods of treating ophthalmic diseases using NPR-B agonists” (Shire Orphan Therapies GmbH, dated 2015) are described below.

Numbered stars: 1 amine (or outer) side, 2 acyl side, 3 side chain; on linkers, the order of the positions; unused ones are H or OH. Square brackets hold non-standard residues; d marks the D form. Ends that are not written are not given here. * marks the point of attachment. Tap(Ae) = (2S,4R)-4-(2-aminoethylamino)pyrrolidine-2-carboxylic acid, O=C([C@@H]1C[C@@H](NCCN[*:3])CN1[*:1])[*:2]; Paa = piperazin-1-yl-acetic acid, O=C(CN1CCN([*:1])CC1)[*:2]; Pro(trans-4-NH2) = O=C([C@@H]1C[C@@H](N[*:3])CN1[*:1])[*:2]; Sni = (S)-nipecotic acid, O=C([C@H]1CCCN([*:1])C1)[*:2]; Hyp = O=C(O)[C@@H]1C[C@@H](O)CN1; d(β3hL) = CC(C)C[C@@H](N)CC(=O)O; hPhe = N[C@@H](CCc1ccccc1)C(=O)O; 2Thi = N[C@@H](Cc1cccs1)C(=O)O; AR‑314‑102 = not defined here; NMeL = CN[C@@H](CC(C)C)C(=O)O; AR‑314‑87 = not defined here; Chg = N[C@H](C(=O)O)C1CCCCC1; lys(Me2) = not defined here; orn(Me2) = not defined here; BB394 = not defined here; BB785 = not defined here; Nle = CCCC[C@H](N)C(=O)O; Octanoyl = CCCCCCCC(=O)*; Che = not defined here; Hexanoyl = CCCCCC(=O)*; leu = not defined here; Occ = octanoic acid

The labels stand for the following.
B1: JAL-1682 (peptide)
peptide: [Occ][Sni]FLL[Pro(trans-4-NH2)][NMeL]DR[Che]
modifications: not fully specified (residue 4); printed as Occ-Sni-Phe-leu-Leu-Tap-Nml-Asp-Arg-Che; reading uncertain
B2: JAL-0713 (peptide)
peptide: XXFGLKLDRI
HELM: PEPTIDE1{[CCCCCC(=O)[*:2]].[O=C(c1nc(N[*:1])cs1)[*:2]].F.G.L.K.L.D.R.I.[am]}$$$$V2.0
SMILES: CCCCCC(=O)Nc1csc(C(=O)N[C@@H](Cc2ccccc2)C(=O)NCC(=O)N[C@@H](CC(C)C)C(=O)N[C@@H](CCCCN)C(=O)N[C@@H](CC(C)C)C(=O)N[C@@H](CC(=O)O)C(=O)N[C@@H](CCCNC(=N)N)C(=O)N[C@H](C(N)=O)[C@@H](C)CC)n1
B3: JAL-1683 (peptide)
peptide: [Occ][Sni]FLL[Tap(Ae)][NMeL]VR[Che]
modifications: not fully specified (residue 4); printed as Occ-Sni-Phe-leu-Leu-Tap(Ae)-Nml-Val-Arg-Che; reading uncertain
B4: JAL-1755 (peptide)
peptide: [Occ][Sni]FLL[Hyp][NMeL][Nle]R[Che]
modifications: not fully specified (residue 4); printed as Occ-Sni-Phe-leu-Leu-Hyp-Nml-Nle-Arg-Che; reading uncertain
B5: JAL-1758 (peptide)
peptide: [Occ][Sni]FLL[Hyp][NMeL][2Thi]R[Che]
modifications: not fully specified (residue 4); printed as Occ-Sni-Phe-leu-Leu-Hyp-Nml-Thi-Arg-Che; reading uncertain
B6: JAL-1752 (peptide)
peptide: [Occ][Sni]FLL[Hyp][NMeL]SR[Che]
modifications: not fully specified (residue 4); printed as Occ-Sni-Phe-leu-Leu-Hyp-Nml-Ser-Arg-Che; reading uncertain
B7: JAL-1751 (peptide)
peptide: [Occ][Sni]FLL[Hyp][NMeL]NR[Che]
modifications: not fully specified (residue 4); printed as Occ-Sni-Phe-leu-Leu-Hyp-Nml-Asn-Arg-Che; reading uncertain
B8: JAL-1685 (peptide)
peptide: [Occ][Sni]FLL[Hyp][NMeL]D[Apc(Gua)][Che]
modifications: not fully specified (residue 4); printed as Occ-Sni-Phe-leu-Leu-Hyp-Nml-Asp-Apc(Gua)-Che; reading uncertain
B9: JAL-1729 (peptide)
peptide: [Occ][Sni]FLL[Pro(trans-4-NH2)][NMeL]VR[Che]
modifications: not fully specified (residue 4); printed as Occ-Sni-Phe-leu-Leu-Tap-Nml-Val-Arg-Che; reading uncertain
B10: JAL-1756 (peptide)
peptide: [Occ][Sni]FLL[Hyp][NMeL][d(β3hL)]R[Che]
modifications: not fully specified (residue 4); printed as Occ-Sni-Phe-leu-Leu-Hyp-Nml-Ble-Arg-Che; reading uncertain
B11: JAL-1694 (peptide)
peptide: [Occ][Sni]FLL[Hyp][NMeL]D[BB394][Che]
modifications: not fully specified (residue 4); printed as Occ-Sni-Phe-leu-Leu-Hyp-Nml-Asp-(BB394)-Che; reading uncertain
B12: JAL-1776 (peptide)
peptide: Octanoyl-[Sni]F[orn(Me2)]L[Hyp][NMeL]DR[Che]
modifications: reading uncertain; also: printed as Occ-Sni-Phe-orn(Me2)-Leu-Hyp-Nml-Asp-Arg-Che
B13: JAL-1753 (peptide)
peptide: [Occ][Sni]FLL[Hyp][NMeL]TR[Che]
modifications: not fully specified (residue 4); printed as Occ-Sni-Phe-leu-Leu-Hyp-Nml-Thr-Arg-Che; reading uncertain
B14: JAL-1778 (peptide)
peptide: Octanoyl-[Sni]F[orn(Me2)]L[Hyp][NMeL]VR[Che]
modifications: reading uncertain; also: printed as Occ-Sni-Phe-orn(Me2)-Leu-Hyp-Nml-Val-Arg-Che
B15: JAL-1687 (peptide)
peptide: [Occ][Sni]FLL[Hyp][NMeL]D[Apc(Gly)][Che]
modifications: not fully specified (residue 4); printed as Occ-Sni-Phe-leu-Leu-Hyp-Nml-Asp-Apc(Gly)-Che; reading uncertain
B16: JAL-1777 (peptide)
peptide: Octanoyl-[Sni]F[lys(Me2)]L[Hyp][NMeL]DR[Che]
modifications: reading uncertain; also: printed as Occ-Sni-Phe-lys(Me2)-Leu-Hyp-Nml-Asp-Arg-Che
B17: JAL-1730 (peptide)
peptide: [Occ][Sni]FLL[Hyp][NMeL]VR[Che]
modifications: not fully specified (residue 4); printed as Occ-Sni-Phe-leu-Leu-Hyp-Nml-Val-Arg-Che; reading uncertain
B18: JAL-1701 (peptide)
peptide: [Occ][Sni][hPhe]LL[Hyp][NMeL]DRI-NH2
modifications: not fully specified (residue 4); printed as Occ-Sni-Hfe-leu-Leu-Hyp-Nml-Asp-Arg-Ile-
B19: JAL-1697 (peptide)
peptide: [Occ][Sni]FLL[Hyp][NMeL]D[BB785][Che]
modifications: not fully specified (residue 4); printed as Occ-Sni-Phe-leu-Leu-Hyp-Nml-Asp-(BB785)-Che; reading uncertain
B20: JAL-1774 (peptide)
peptide: [AR‑314‑102][leu]L[Hyp][NMeL]DRI-NH2
modifications: reading uncertain; also: printed as (AR-314-102)-leu-Leu-Hyp-Nml-Asp-Arg-Ile-NH2
B21: JAL-1681 (peptide)
peptide: [Occ][Sni]FLL[Tap(Ae)][NMeL]DR[Che]
modifications: not fully specified (residue 4); printed as Occ-Sni-Phe-leu-Leu-Tap(Ae)-Nml-Asp-Arg-Che; reading uncertain

The target in this experiment is T1, natriuretic peptide receptor-B (human).
T1 chain: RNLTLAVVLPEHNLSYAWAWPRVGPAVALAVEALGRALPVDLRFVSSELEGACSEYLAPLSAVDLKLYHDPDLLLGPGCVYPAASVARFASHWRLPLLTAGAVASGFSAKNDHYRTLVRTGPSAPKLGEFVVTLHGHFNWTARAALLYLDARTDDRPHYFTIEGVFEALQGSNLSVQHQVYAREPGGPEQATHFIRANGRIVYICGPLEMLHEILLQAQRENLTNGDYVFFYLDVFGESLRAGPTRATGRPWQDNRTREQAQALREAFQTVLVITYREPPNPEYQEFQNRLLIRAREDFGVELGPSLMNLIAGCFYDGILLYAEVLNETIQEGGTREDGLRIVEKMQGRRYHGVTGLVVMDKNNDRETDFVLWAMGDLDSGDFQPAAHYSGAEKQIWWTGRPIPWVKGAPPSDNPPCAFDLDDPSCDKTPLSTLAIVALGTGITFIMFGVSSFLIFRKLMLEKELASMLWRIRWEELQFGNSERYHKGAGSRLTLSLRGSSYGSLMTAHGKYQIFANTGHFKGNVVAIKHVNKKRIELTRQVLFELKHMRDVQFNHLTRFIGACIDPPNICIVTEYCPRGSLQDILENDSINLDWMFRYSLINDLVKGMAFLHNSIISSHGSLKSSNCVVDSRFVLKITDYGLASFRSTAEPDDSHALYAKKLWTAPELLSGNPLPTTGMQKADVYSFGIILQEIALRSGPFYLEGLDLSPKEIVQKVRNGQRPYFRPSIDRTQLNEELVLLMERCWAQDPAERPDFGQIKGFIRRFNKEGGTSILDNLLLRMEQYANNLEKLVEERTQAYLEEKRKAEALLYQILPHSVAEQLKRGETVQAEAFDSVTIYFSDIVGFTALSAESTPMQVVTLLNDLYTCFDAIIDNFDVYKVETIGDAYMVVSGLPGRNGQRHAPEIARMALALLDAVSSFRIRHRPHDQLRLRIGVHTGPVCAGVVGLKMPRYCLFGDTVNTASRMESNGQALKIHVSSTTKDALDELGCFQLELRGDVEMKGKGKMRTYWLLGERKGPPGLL
Kind of experiment: cell-based or functional assay.
In the case of B1, the “EC50 group, cGMP in GTM-3 cells” value is no more than 1 µM.

For Octanoyl-[Sni]F[leu]L[Hyp][NMeL][Chg]R[Che] (reading uncertain; also: printed as Occ-Sni-Phe-leu-Leu-Hyp-Nml-Chg-Arg-Che) [JAL-1763], the “EC50 group, cGMP in GTM-3 cells” value was no more than 15 µM.

In the case of B2, the “EC50 group, cGMP in GTM-3 cells” value was no more than 15 µM.

Turning to B3, the “EC50 group, cGMP in GTM-3 cells” value was no more than 15 µM.

On to [Occ][Sni]F[dL]L[Hyp][NMeL]DR[Che] (reading uncertain; also: printed as Occ-Sni-Phe-leu-Leu-Hyp-Nml-Asp-Arg-Che) [JAL-1680], for which the “EC50 group, cGMP in GTM-3 cells” value is no more than 1 µM.

In the case of B4, the “EC50 group, cGMP in GTM-3 cells” value is no more than 15 µM.

For the molecule B5, the “EC50 group, cGMP in GTM-3 cells” value was no more than 15 µM.

Take B6: the “EC50 group, cGMP in GTM-3 cells” value is no more than 1 µM.

Take B7: the “EC50 group, cGMP in GTM-3 cells” value was no more than 15 µM.

For B8, the “EC50 group, cGMP in GTM-3 cells” value was no more than 15 µM.

On to B9, for which the “EC50 group, cGMP in GTM-3 cells” value is no more than 1 µM.

For the molecule B10, the “EC50 group, cGMP in GTM-3 cells” value is no more than 5 µM.

Regarding B11, the “EC50 group, cGMP in GTM-3 cells” value was no more than 15 µM.

As for B12, the “EC50 group, cGMP in GTM-3 cells” value was no more than 1 µM.

With B13, the “EC50 group, cGMP in GTM-3 cells” value is no more than 1 µM.

Regarding B14, the “EC50 group, cGMP in GTM-3 cells” value is no more than 5 µM.

For the molecule B15, the “EC50 group, cGMP in GTM-3 cells” value was no more than 5 µM.

Consider B16, for which the “EC50 group, cGMP in GTM-3 cells” value is no more than 1 µM.

Consider Hexanoyl-[dA][dA]FGLKLDR[Chg]-NH2 [JAL-0718], for which the “EC50 group, cGMP in GTM-3 cells” value was no more than 15 µM.

On to B17, for which the “EC50 group, cGMP in GTM-3 cells” value was no more than 1 µM.

On to B18, for which the “EC50 group, cGMP in GTM-3 cells” value was no more than 15 µM.

For B19, the “EC50 group, cGMP in GTM-3 cells” value is no more than 5 µM.

On to [AR‑314‑87][leu]L[Hyp][NMeL]DRI-NH2 (reading uncertain; also: printed as (AR-314-87)-leu-Leu-Hyp-Nml-Asp-Arg-Ile-NH2) [JAL-1765-2], for which the “EC50 group, cGMP in GTM-3 cells” value is no more than 1 µM.

As to B20, the “EC50 group, cGMP in GTM-3 cells” value was no more than 1 µM.

For B21, the “EC50 group, cGMP in GTM-3 cells” value was no more than 1 µM.

As to Hexanoyl-[dA][dA]F[Paa]KLDRI-NH2 [JAL-0731], the “EC50 group, cGMP in GTM-3 cells” value was no more than 15 µM.
